# Assay: soluble on expression in E. coli; label from the status in PepcDB or PDB records
row,Sequence,soluble on expression in E. coli
1,MGSDKIHHHHHHMGREIFNRRLPDNYNDFSHSMDNAANGHYFLRVASSNYKRPDGKNVRTVRDVIAEVDQNGVVVDEWRLFDILDPYRDVIMKTLDQGAVCLNIDASQSGHTLSEEDLAALDSSDKFGDIVGSGAGRNWAHVNSVDYDSEDDSIIISSRHQSAIIKIGRDKKVKWILGTPAGWKAPFNAAILTPVDSKGQKIACQDSGCEGDFDWTWTQHTAFKIDSKSKGDILYLSAFDNGDGRGLEQPAMQSMKYSRSVIYKIDQKNKTVQQIWQYGKERGNEWFSPVTSITEYQTDKNSVFVYSATAGGAFDLSVGAFTSLPNPYLEEFKWGEKEPAVEMQIHGARGYQAMPFSLTKALTE,not soluble
2,GALKRAEELKTQANDYFKAKDYENAIKFYSQAIELNPSNAIYYGNRSLAYLRTECYGYALGDATRAIELDKKYIKGYYRRAASNMALGKFRAALRDYETVVKVKPHDKDAKMKYQECNKIVKQKAFERAIAGDEHKRSVVDSLDIESMTIEDEYSGPKLEDGKVTISFMKELMQWYKDQKKLHRKCAYQILVQVKEVLSKLSTLVETTLKETEKITVCGDTHGQFYDLLNIFELNGLPSETNPYIFNGDFVDRGSFSVEVILTLFGFKLLYPDHFHLLRGNHETDNMNQIYGFEGEVKAKYTAQMYELFSEVFEWLPLAQCINGKVLIMHGGLFSEDGVTLDDIRKIERNRQPPDSGPMCDLLWSDPQPQNGRSISKRGVSCQFGPDVTKAFLEENNLDYIIRSHEVKAEGYEVAHGGRCVTVFSAPNYCDQMGNKASYIHLQGSDLRPQFHQFTAVPHPNVKPMAYANTLLQLGMM,soluble
3,MEYHLRTKLNGNIAMTSCFHENSFLQCDRSLYKFIWVRHGALDVEVDHVVMHLEKEEMISLTPLHHVQIRGVDGEYLTFLFNSNFYCIYGHDSEVSCNGFLFNGSSRVMRLKLSPSQSARLDSIVDIFRGECGIQDNLQEEMLRIILKRFIITCTRIAREKFDVDPGRENMFDVIRQFYVLVDSHFKEKKQVQDYADMLCRSPKTISNLFSLYGLSSPLRVIHERVDAEAKRLLLYTGKSAKEISEILGFEDLATFSRFFKKMNKESLSEYRKREKRE,not soluble
4,MDDDPHFDQNVQTVIAKTEAYITESVKAGGTGRALRDAHAKGYGLVRGEVEILDGLPPEYAQGIYATPGTHDALIRFSNGSPHAGADARLGAATGLALKIFDIPGPTLLEDEPDTGTFDYANINGPIFFCNTVEHYLFIQELFLNAPAYFSQGRPGAHRFFTDFVTGKGTLDQDDWAWDEFLAFLRLSKTPPANLLLSSYWTMGAVRHGDYIAKVRITPDPSFAAAVVRRDIDPTSAQEVFRPALEAELQERPYAFDIQVQLCTDLERMPVEDTTVEWPEQLSPSVTVAKLRLPRQDISGPENLEKMDSLSFTPWRVTAEHAPLGNIMRSRKEVYRQSSMERHKLEHHHHHH,not soluble
5,MCLILFALDAHPRYRLVLAANRDEFYARPTAPAAFWDDAPQVLAGRDLTAGGTWCGVTRDGRIAAVTNYRDPGAHRVGARSRGELVAGFLGGDEAPSRWLEHLQRNGHDYNGFNLIFGDGNGLHYHSNRGAAASPLSPGIHGLSNHLLDTPWPKVARGRDALARLLATADEPAVDDLFAILANRTPAPDHLLPDTGVSLDWERLLSPLFITSPTYGTRSSTVILVDRSGQCTFVERSYNGAADHPRTVEYRFEVITLEHHHHHH,not soluble
6,MGSDKIHHHHHHMAEHIITLVLSGERLDVTTSTPFVVALRDLLYEGDWELLKEDMKKKENIMKEVQTCEKLEKVVHLDETVYEPLIFPEFQEWLREENITPKDFKNVSLKGLYDLALEYADRNLYDIAHDIIKFMLDIDENYAPAYELKGSLLVEQGKIEEGIKFLDKAVEIDPWLVQAYASLGEAYYNLGDYEKAIHYWERELEYNPNDKITYFMITEAYYEMNRKDLAVKTLERLLEIDPDNIPALYQLSQLYRELGNEEKAREMEEKIMNCKPKYPTELEPWARVMLKHGRYKEVAEELEKIVESSPLNTLARLLLVVPYVKLGQIDKAREILDDIGQSNFWYYYGKKEILDELLTEEEKRACGIS,not soluble
7,MQVIVGHSSTRLPENNENGHTHKWTLFVKPGNRDYDEFPDNKLIQKVKFEIHESFAQPVRFVTKPPFKITETGFASFTTLVTIFLNLPNEKPRTIPYELTLFTGDQDVQLETQKLVVQKDVPPAYLELIKKYARTKKRKASLISNDEKSPSRKMHKITPVKEEESSQKMSKSKEKGVPIPKIDIEIEKASPKKEKKEKVKSPEELTRRLNECTDSHVIYKASEYLLTLPDTKLSQTTLKLSFDLSRCDSTTLMDIGRILKGKKAKK,not soluble
8,MMEDGNYIINPWVYTDRMGMYRILLEETAMYFAKYGPENEQNLLWGLPLQFGWQYQSGRLADPTGMTDCGNELNESLCVSVDSWWADINYYLSVIPFLAAVDSGITGISPNQITILPPPKDQMRFCYNVSDCQSAVPGTMNRWRDFFQYMQLNSSDFDGLLNYLWEAHASSLDYPTSAFGDRYNFYSEKEANFEENWAIAVNYLAAARLPTTQNRTYSFQRGLPPRVLVDTDIAPFIPDFTPLQNEVLVSLKLLGDTDRNSGSLSLTLWENLMSTKLARTLFLKAFEEFLVTSS,soluble
9,MEVCSTVTTKKLSSLAKLILFTIQKVSDASRHKLLTTLDPHLLAKRGKILRKSLNEAVSTSHSRITCRPSDHQDVRSSFISPVPLQLEYEFSCSSTPPRRSYATTVSKGRRSNGSHNRPLINKRQRQAYIRYNTLPKVRDSIWDRHVAAAVFPDVASSTGTMESCHVDRAAEEFIQSFYRQLRLQKWMMAQEV,not soluble
10,MWEYLIHGEPTPRLKPFLEGVGKALEAQGFRHNPESEAPNLVLNAITPENPRPYRRRAQATFVASVLELPEFPQDPLRELYPYLVRALSNVLLAYVPGQGVKFLTLELGHYGEPEGKGFYERVAARLRPIACSRLVINNIFEPDLEPELWQGDELTESMYRAGKKLKEWDLLPAPFPIEEILPPEDLRHVKRLYGIGGLSYGNLSVRKDEKRFWMSASGVDKANLREIGRDILMVKDYDPERNAILLSVPPHVEPRRVSVDAIEHWMIYREHPEVGAILHVHAWMEGVPATAFNYPCGTYELAQAVADKVREAPDPARAVVGLKNHGLTITGRSLDEILERIEGKLIRTVPMA,soluble
11,MGSDKIHHHHHHMNLKDKTLLITGIDEFVGLRTAELAIAQGMKVRGLKSSTEQNKQLQNLGVEIIIGSITDSTIAQKACQGVDIVLHTDQLAEEAGAIKNFRDVNVGGTVNMAKAAKQAGVKTFVHLSSVMVYGFNYPNGVTESGPLSGENNPYCETKIEAETAVLELNNPPDFGIIVIRAGDVYGPGSIPWIVRPVLMMRQKLFACANDGKGVINHVYIDNLIDGIFLAIEKETYGEIFNITDGQETSWKEYFMRLAAMEGLSAPLSLPKDEIKLFLKLRVQGQKLFRKKVDILPESIDFMTRPYACSIVKAQSMLNYKPTIHLEEGMQRTHEWLQKTDIQSLIK,not soluble
12,MGSDKIHHHHHHMSQRENPQNSSQDVADLLGGAFAGHTMQRLRTPDGKYRYSYVSSGVQASFGLDPEALMQLQDVDHSWLHPADRSLFIAALEQSAAALTRLDEEVRVSLDDGTFKWVRSIGNPRRMRDGTVIWDGVALDVTDRHEASEALERTLTQVRQNETSEGRFSYIAASDVLDRLSSLRAAVEQLDLSVPTAAHVHAVFQKFERGLFAARDLLDDTALDETRPTDHEPHKDISATLTPRQQDILGHVSRGATNRDIARAMDISEGTVKLHISAILKRTGAQNRTEAALAWTSSNGTPRR,not soluble
13,MSTGATIVIDLGKTLSKVSLWDLDGRMLDRQVRPSIPLEIDGIRRLDAPDTGRWLLDVLSRYADHPVTTIVPVGHGAGIAALTDGRLAFPPLDYEQSIPEAVMADYRSQRDPFARTGSPALPDGLNIGSQLWWLDQLHPDVMANATLLPWAQYWAWFLTGRAVSEVTSLGCHSDLWDPQDGDFSPMAKRLGWAARFAPIVRAGDTVGALLPAIAERTGLSPDVQVLAGLHDSNAALLAARLEHHHHHH,not soluble
14,MGSDKIHHHHHHMKVTLIGIDLAKNVLQVCGVNQVGKTLFNRTVKRTQLLKTLVQYPDAVIAMEACSGSNYWGRELLSRGFEVKLIPPQHVKPFVKGNKNDRNDAFAICEAAMRPNIIFVKPRTLAQVDIIISHRIRERRIRVRTALTNQIRGLLSEYGIVIPKGRDPLNLALPELLEDADNSLTTTARRYIRELLDELYAINASIKALEKEIRLQARNHEDTKRLTAIRGVAEIIATASVSFAGDGSGYQNGRHFSANLGLVPKEFSSGGKQKLGAITKRGNSYLRRQLIQGAWSVIRYAKNNDDRLSVWARKVIERRGKQKAAVAVANKLARIIWAMLYYKTEYRPS,not soluble
15,STYEYKRELREGARGKWINLRQHLNSGTRLEKELIKVDRQIDKKAAEIKEIEDLLFKIEQYKAENNIR,not soluble
16,MGRVAEKVIIIGNNFGNDKSAVTVLFTDNMEKENKAAVVGVDNTTIYCMAPRQAEGFNKITVKVNDQTVVADETFKYSVSENVSTIAGDFVQADGAGKDGSLAEATFGQMFGVACIDEQSGIVGQAWNNNSVRYISIDEDAVITIQSGPVVGKVAVSNDKTLAYGATINGANTVYVYKKSQAWVPSRLSDISSGTDVWAVALNGDNQWLYYVTANGRLGRIEVDNPTHNEILFEHNDFSGGPFAYIAYSAFEDCFYVTTDKNKILKVWVKEDGTHAYEQINQNNTGTTDGFLADEAKFQYLRGLTIDEDGNIFVCQGDNSHVIRKIAYDENMEKRYVTTVLGTSTVHGTDDGSPDIALFNGPQDISYDGNGGYWIAMRYEPALRKYSIELEHHHHHH,soluble
17,MFRVITRGAHTAASRQALIEKIIRVDHAGELGADRIYAGQLAVLQGSSVGSVIKKMWDEEKEHLDTMERLAAKHNVPHTVFSPVFSVAAYALGVGSALLGKEGAMACTIAVEELIGQHYNDQLKELLADDPETHKELLKILTRLRDEELHHHDTGVEHDGMKAPAYSALKWIIQTGCKGAIAIAEKI,not soluble
18,GMSQRIGVIDMGTNTFHLLITDIVNDRPHTLVNEKSAVGLGKGGITKGFITEEAMDRALDTLKKFRVILDEHAVVHVIATGTSAVRSGSNKQVLIDRIKKEVNIDVEVIDGAREAELIFRGVQQAVPMEDHISLAMDIGGGSVEFIIGNKNEILWKQSFEIGGQRLIDRFHVHDPMREDDRVMMHNYFDEVLVPLEKAINTWRPTQLIGCSGTFDTLAEMNIQHHREKIALEKQTSYLLSLPDFNRLRKQLVASTRRERLAIAGMIELRADMVVVAICLIEHVLKLVSTNAITVSTYSLKEGVLYTMLDGVKVGS,soluble
19,MVIPALNEAPTVAKVVEAVLADNPLEVLVIDADSTDATAAEARSAGATVLNWREILDTEPIPGKGESLWRGVAAARGDIVVFVDADLTSFRPGMVNSLVAPFLNDDIHLVKADYVRTFGDHTTGGGRVTELTAKPLLRALFPELSHIRQPLGGEYAIRRSTALAMPFVSGYGVEVGLLIDVATQFGTSSIAQVDLGSRSHNHQSLEALGSMADVVATTILQRFGHDLPVVQREPLGIHLEHHHHHH,not soluble
20,MGLHPTLGEHGERELLALQKVDYPKGDVKAQAKHTARTLLECYNCHSLGEYNTLLNLYNITVYEVRGSVDGKEYHGIMYGALDDNGQQVGTPFKSSKFGKVFGYEALQKKFAASAEKVKKDNLPERLEHHHHHH,soluble
21,MLTTDSLKRLWIFSFDRTLTAAGACYSKARLHRVTRQFLEELAALPGHRVAVLSSRPLDDLVSRVPIEGIYLGGSCGTEWHIPGGESMTLSGKPKDMLMETRDALLPTLREVADLPGVELEDRRWSAALHTQEANTKARQTLFARLAAVLKGWRVALYRNTTMVEIQFLPEITMAFGAQALCRFLGYRGDVVCAGSDENDATALRWALNQGGTALSLGRDPLVPGARPVVDVRSLARHVRDLAGIDEHHRTRMAGRRLCNAALEHHHHHH,not soluble
22,MYIAHIFRVSVAHLQFFNGPTTKNWAEPYQSIETSDTQSHITWQALIGRPFIFVEKKFLLFLSKKFSLVGNFPIPSNFADQFSSVSIPSESLPFSRKSFSDHHPWLPLISMESSWE,not soluble

# Source: the DeepSol protein solubility set
